Key:
[1] = target: Bee1p (1-165) (S. cerevisiae); experiment: two-hybrid
[2] = target: Bee1p (1-633) (S. cerevisiae); experiment: two-hybrid
Bee1p-HA (S. cerevisiae) = experiment: co-IP

| Binder | LacZ expression (two-hybrid) [1] | LacZ expression (two-hybrid) [2] | percent coimmunoprecipitated (Bee1p-HA (S. cerevisiae)) |
| --- | --- | --- | --- |
| Vrp1p (195-817) (domain or fragment) HMPSVRPAHRSHQRKSSNISLPSVSAPPLPSASLPTHVSNPPQAPPPPPTPTIGLDSKNIKPTDNAVSPPSSEVPAGGLPFLAEINARRSERGAVEGVSSTKIQTENHKSPSQPPLPSSAPPIPTSHAPPLPPTAPPPPSLPNVTSAPKKATSAPAPPPPPLPAAMSSASTNSVKATPVPPTLAPPLPNTTSVPPNKASSMPAPPPPPPPPPGAFSTSSALSASSIPLAPLPPPPPPSVATSVPSAPPPPPTLTTNKPSASSKQSKISSSSSSSAVTPGGPLPFLAEIQKKRDDRFVVGGDTGYTTQDKQEDVIGSSKDDNVRPSPISPSINPPKQSSQNGMSFLDEIESKLHKQTSSNAFNAPPPHTDAMAPPLPPSAPPPPITSLPTPTASGDDHTNDKSETVLGMKKAKAPALPGHVPPPPVPPVLSDDSKNNVPAASLLHDVLPSSNLEKPPSPPVAAAPPLPTFSAPSLPQQSVSTSIPSPPPVAPTLSVRTETESISKNPTKSPPPPPSPSTMDTGTSNSPSKNLKQRLFSTGGSTLQHKHNTHTNQPDVDVGRYTIGGSNSIVGAKSGNERIVIDDSRFKWTNVSQMPKPRPFQNKTKLYPSGKGSSVPLDLTLFT | 144 Miller units | 144 Miller units | – |
| Vrp1p-Myc (natural protein) MAGAPAPPPPPPPPALGGSAPKPAKSVMQGRDALLGDIRKGMKLKKAETNDRSAPIVGGGVVSSASGSSGTVSSKGPSMSAPPIPGMGAPQLGDILAGGIPKLKHINNNASTKPSPSASAPPIPGAVPSVAAPPIPNAPLSPAPAVPSIPSSSAPPIPDIPSSAAPPIPIVPSSPAPPLPLSGASAPKVPQNRPHMPSVRPAHRSHQRKSSNISLPSVSAPPLPSASLPTHVSNPPQAPPPPPTPTIGLDSKNIKPTDNAVSPPSSEVPAGGLPFLAEINARRSERGAVEGVSSTKIQTENHKSPSQPPLPSSAPPIPTSHAPPLPPTAPPPPSLPNVTSAPKKATSAPAPPPPPLPAAMSSASTNSVKATPVPPTLAPPLPNTTSVPPNKASSMPAPPPPPPPPPGAFSTSSALSASSIPLAPLPPPPPPSVATSVPSAPPPPPTLTTNKPSASSKQSKISSSSSSSAVTPGGPLPFLAEIQKKRDDRFVVGGDTGYTTQDKQEDVIGSSKDDNVRPSPISPSINPPKQSSQNGMSFLDEIESKLHKQTSSNAFNAPPPHTDAMAPPLPPSAPPPPITSLPTPTASGDDHTNDKSETVLGMKKAKAPALPGHVPPPPVPPVLSDDSKNNVPAASLLHDVLPSSNLEKPPSPPVAAAPPLPTFSAPSLPQQSVSTSIPSPPPVAPTLSVRTETESISKNPTKSPPPPPSPSTMDTGTSNSPSKNLKQRLFSTGGSTLQHKHNTHTNQPDVDVGRYTIGGSNSIVGAKSGNERIVIDDSRFKWTNVSQMPKPRPFQNKTKLYPSGKGSSVPLDLTLFT | – | – | 5% |
| Myo5p-SH3-AD (1020-1219) (domain or fragment) NKAATRRSVPNPASTLTASQSNARPSPPTAATRATPAATPAAAAMGSGRQANIPPPPPPPPPSSKPKEPMFEAAYDFPGSGSPSELPLKKGDVIYITREEPSGWSLGKLLDGSKEGWVPTAYMKPHSGNNNIPTPPQNRDVPKPVLNSVQHDNTSANVIPAAAQASLGDGLANALAARANKMRLESDDEEANEDEEEDDW | – | 398 Miller units | – |
